Sequences and labels used below:
B2: RsbWCt, recombinant purified (SPR analyte) (natural protein, Chlamydia trachomatis, UniProt O84553 1-146, looked up)
chain: MTFSEGEQVFPATLQDLYPMLDFVKRAGVHCNCTQKKLSKLELACEELLLNIITHAYKGLPSTGWIRILCTETPDALLVRITDHGPAFNPITASPDIMRLDLPIEQRRIGGLGIFLAKYSVDVFDYERVNDTNVVTLTLYTKPHNS
notes: RsbW of Chlamydia trachomatis, cloned from serovar D/UW/CX genomic DNA; also called CT549; source: PC2 E. coli, pGEX-derived vector, purified

Assay [1] concerns the target B2. In words: SPR; RsbV1, RsbV2 or their S-to-A / S-to-D derivatives immobilized on CM5 chip, RsbWCt analyte (2500nM for the wild-type ligands) with ATP, first and repeated injections; empty reference flow cell; 10mM HEPES, 150mM NaCl, 1mM MgCl2, 30°C. Particulars: both partners purified. (In SPR one partner is held on a chip, and binding of the other changes the refractive index at the surface.)

The target in assay [2] is T1, σ^66, recombinant purified, amine-coupled SPR ligand (Chlamydia trachomatis, UniProt P18333 1-571).
T1 construct: Sigma66 (RpoD) of Chlamydia trachomatis, cloned from serovar D/UW/CX genomic DNA; may be the same construct as m12 (GST-σ66); also called Sigma66; RpoD; source: PC2 E. coli, pGEX-derived vector, purified
T1 sequence (looked up): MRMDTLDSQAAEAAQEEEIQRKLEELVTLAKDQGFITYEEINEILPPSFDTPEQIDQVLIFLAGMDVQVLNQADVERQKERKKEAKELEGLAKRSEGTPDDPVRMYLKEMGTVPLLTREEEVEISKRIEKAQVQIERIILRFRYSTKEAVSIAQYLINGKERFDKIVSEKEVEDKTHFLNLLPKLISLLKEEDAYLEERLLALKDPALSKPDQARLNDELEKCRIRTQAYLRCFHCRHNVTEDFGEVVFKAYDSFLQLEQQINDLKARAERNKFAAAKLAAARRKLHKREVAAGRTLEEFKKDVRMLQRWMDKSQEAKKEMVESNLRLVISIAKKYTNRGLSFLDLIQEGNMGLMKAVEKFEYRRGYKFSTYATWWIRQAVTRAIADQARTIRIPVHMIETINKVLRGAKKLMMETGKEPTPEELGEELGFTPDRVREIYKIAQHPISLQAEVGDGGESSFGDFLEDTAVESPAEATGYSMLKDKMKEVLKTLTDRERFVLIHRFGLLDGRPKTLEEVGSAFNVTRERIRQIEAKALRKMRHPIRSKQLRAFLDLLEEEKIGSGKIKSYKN
In words: SPR; Biacore 3000, CM5 chip; σ66, σ28 and σ54 amine-coupled to consecutive flow cells, RsbWCt analyte at various concentrations; reference flow cell with immobilized GST; Req as percent of theoretical Rmax; 10mM HEPES, 150mM NaCl, 1mM MgCl2, 30°C. Particulars: both partners purified.

This is an account of results in publication PMC4552016, “The Rsb Phosphoregulatory Network Controls Availability of the Primary Sigma Factor in Chlamydia trachomatis and Influences the Kinetics of Growth and Development” (PLoS Pathogens, 2015).

B1: RsbV2 S55A (natural protein)
chain: MEWIAREYKNIFIVSLKGDMDAVTVPALEEFLTKSIAKGRVNVLLNMEKVFYMSAAGLRTLLSLAKLTQNHNGKLCICCLRDEVADIIRIAGLDKVITIRKAEQESFSDF
notes: RsbV2 of Chlamydia trachomatis (serovar D/UW/CX) with the phospho-accepting serine 55 changed to alanine; also called alanine derivative of RsbV2; source: PC2 E. coli, pGEX-derived vector (site directed mutagenesis), purified
B1: the binding result in assay [1] is on record as “binds”.

Take B2: the binding result in assay [2] is given as “binds”.

B3: RsbV1 S56A (natural protein)
chain: MSNFQKEEQGQTGILHLQGKLDGVSSPAVQESISESLSNGMKNIILDCGDLDYISAAGIRVLLQSYHQVGKNAGKIALTSVSKTVEQTLYVTGFLSYFKVFDSVNEALQALAKENS
notes: RsbV1 of Chlamydia trachomatis (serovar D/UW/CX) with the phospho-accepting serine 56 changed to alanine; also called alanine derivative of RsbV1; source: PC2 E. coli, pGEX-derived vector (site directed mutagenesis), purified
As to B3, the binding result in assay [1] is “binds”.
